Source: article PMC10779143, “Collagen-like Osteoclast-Associated Receptor (OSCAR)-Binding Motifs Show a Co-Stimulatory Effect on Osteoclastogenesis in a Peptide Hydrogel System” (International Journal of Molecular Sciences, 2023)
[ ]: non-standard residue; d: D form. Hyp = O=C(O)[C@@H]1C[C@@H](O)CN1

B1: OP1_Pro (peptide)
chain: Ac-GP[Hyp]GP[Hyp]GP[Hyp]GAPGPAGFAGP[Hyp]GP[Hyp]GP[Hyp]-NH2
SMILES: CC(=O)NCC(=O)N1CCC[C@H]1C(=O)N1C[C@H](O)C[C@H]1C(=O)NCC(=O)N1CCC[C@H]1C(=O)N1C[C@H](O)C[C@H]1C(=O)NCC(=O)N1CCC[C@H]1C(=O)N1C[C@H](O)C[C@H]1C(=O)NCC(=O)N[C@@H](C)C(=O)N1CCC[C@H]1C(=O)NCC(=O)N1CCC[C@H]1C(=O)N[C@@H](C)C(=O)NCC(=O)N[C@@H](Cc1ccccc1)C(=O)N[C@@H](C)C(=O)NCC(=O)N1CCC[C@H]1C(=O)N1C[C@H](O)C[C@H]1C(=O)NCC(=O)N1CCC[C@H]1C(=O)N1C[C@H](O)C[C@H]1C(=O)NCC(=O)N1CCC[C@H]1C(=O)N1C[C@H](O)C[C@H]1C(N)=O
B2: OP1_Hyp (peptide)
chain: Ac-GP[Hyp]GP[Hyp]GP[Hyp]GA[Hyp]GPAGFAGP[Hyp]GP[Hyp]GP[Hyp]-NH2
SMILES: CC(=O)NCC(=O)N1CCC[C@H]1C(=O)N1C[C@H](O)C[C@H]1C(=O)NCC(=O)N1CCC[C@H]1C(=O)N1C[C@H](O)C[C@H]1C(=O)NCC(=O)N1CCC[C@H]1C(=O)N1C[C@H](O)C[C@H]1C(=O)NCC(=O)N[C@@H](C)C(=O)N1C[C@H](O)C[C@H]1C(=O)NCC(=O)N1CCC[C@H]1C(=O)N[C@@H](C)C(=O)NCC(=O)N[C@@H](Cc1ccccc1)C(=O)N[C@@H](C)C(=O)NCC(=O)N1CCC[C@H]1C(=O)N1C[C@H](O)C[C@H]1C(=O)NCC(=O)N1CCC[C@H]1C(=O)N1C[C@H](O)C[C@H]1C(=O)NCC(=O)N1CCC[C@H]1C(=O)N1C[C@H](O)C[C@H]1C(N)=O

Biological target: T1, Recombinant human OSCAR-Fc chimera (human)
T1 construct: extracellular region of human osteoclast-associated receptor (OSCAR), Asp19-Asn229 of NP_573399; In the functional rows the OSCAR of the test system is the endogenous mouse receptor of Raw 264.7 cells, not this construct; also called osteoclast-associated receptor; source: bought: R&D Systems, Bio-Techne, 9955-OS
Assay: SPR; Biacore T200, CM5 chip; OSCAR-Fc immobilised by amine coupling to 6880 RU; peptides flowed as analytes at 30 µL/min, 25 °C, 10 mM PBS, 150 mM NaCl, 0.05% Tween20, pH 7.4; OP1_Hyp 5000-0 nM (Langmuir 1:1 kinetic fit), OP1_Pro 40,000-0 nM (steady-state analysis)
Conditions: both partners purified

Binder	Kd [µM]
B1	19.5
B2	2.63
